In article PMC4733404 (Cell, 2016):

Biological target: EBOV GP, soluble form of the full-length extracellular domain (Zaire ebolavirus, strain  …, UniProt Q05320)
Experiment: ELISA

Chain of EBOV GP, soluble form of the full-length extracellular domain (Q05320 33-650): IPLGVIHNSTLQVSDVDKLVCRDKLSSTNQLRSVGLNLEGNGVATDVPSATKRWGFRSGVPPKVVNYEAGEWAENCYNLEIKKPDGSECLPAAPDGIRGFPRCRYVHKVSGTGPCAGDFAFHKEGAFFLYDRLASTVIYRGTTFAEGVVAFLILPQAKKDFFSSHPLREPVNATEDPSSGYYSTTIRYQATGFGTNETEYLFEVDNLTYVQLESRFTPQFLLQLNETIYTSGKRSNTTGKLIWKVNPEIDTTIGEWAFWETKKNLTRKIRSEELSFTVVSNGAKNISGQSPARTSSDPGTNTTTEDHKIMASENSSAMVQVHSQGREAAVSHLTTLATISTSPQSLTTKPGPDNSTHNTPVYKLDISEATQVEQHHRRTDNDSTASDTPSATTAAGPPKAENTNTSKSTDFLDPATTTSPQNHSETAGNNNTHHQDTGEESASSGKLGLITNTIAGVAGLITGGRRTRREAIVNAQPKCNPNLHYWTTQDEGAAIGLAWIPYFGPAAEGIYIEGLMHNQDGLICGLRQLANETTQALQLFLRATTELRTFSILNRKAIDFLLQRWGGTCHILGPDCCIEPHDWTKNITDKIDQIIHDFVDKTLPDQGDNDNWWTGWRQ

B1: BDBV289, human mAb (antibody, V domains shown)
VH: QVQLVQSGAEVKKPGSSVKVSCKASGATFGSDTVTWVRQAPGQGLEWMGGIIPFFGEANYAQRFQGRVTITADKSTNTAYMELSSLRSEDTAVYFCARQINEMATFGEIHYYTYMDVWGQGTLVTVSS
VL: GSELTQDPAVSVALGQTVRITCQGDSLRNYYASWYQQKPRQAPVLVFYGKNNRPSGIPDRFSGSSSGNTASLTISGAQAEDEADYYCNSRDSSSNHLVFGGGTKLTVL
- binding result: binds
